According to patent EP0701605B2, “IMPROVED ENZYMES AND DETERGENTS CONTAINING THEM” (BASF SE, priority 1994, dated 1995):

Substrate: C[C@H](NC(=O)CCC(=O)O)C(=O)N[C@@H](C)C(=O)N1CCC[C@H]1C(=O)N[C@@H](Cc1ccccc1)C(=O)Nc1ccc([N+](=O)[O-])cc1
Test: AAPF-pNA assay, kinetic parameters
Type: biochemical, Bacillus lentus DSM 5483
Conditions: 100 mM Tris pH 8.6, 25°C
Procedure: Two different protease assays were used. With the HPE method protease activity was established at a single concentration of casein as substrate. In the AAPF-pNA assay initial rates of succinyl-L-alanyl-L-alanyl-L-prolyi-L-phenylalanyl-p-nitroanilide (AAPF-pNA; Bachem Bioscience, Philadelphia, PA) supported catalysis were used to determine the kinetic parameters Km, kcat, and kcat/Km.
Protease samples were diluted with 50% (v/v) 1,2-propanediol in 100 mM Tris, adjusted with 2 N HCl to pH 8.6 at 25°C ('Tris-propanediol buffer'), in which they were stable for at least 6 h at room temperature. A stock solution of 160 mM AAPF-pNA was prepared in dimethylsulfoxide dried over molecular sieve beads (Aldrich; 4 A, 4-8 mesh) for at least 24 h prior to use. Fixed point assays were performed at 25°C with 1.6 mM AAPF-pNA in 100 mM Tris, adjusted with 2 N HCl to pH 8.6 at 25°C, in a total volume of 1.020 ml. The substrate was added to the assay buffer 1 minute prior to the assay initiation and the reaction was started by addition of enzyme at a final concentration of 20 ng to 1.3 µg of protein per ml (0.75 to 48.5 nM enzyme) depending on specific activity. Release of p-nitroanilide was monitored at 410 nm, and a molar extinction coefficient of 8,480 M^-1cm^-1 was used to calculate amount and concentration of product formed (DelMar, E.G., Largman, C., Brodrick, J.W., and Geokas, M.C. (1979) Anal Biochem. 99, 316-320).
Kinetic parameters were calculated from a velocity vs. substrate concentration plot constructed from initial rates measured once each at 12 different AAPF-pNA concentrations ranging from 0.16 to 3.2 mM. Data were fitted to a hyperbolic curve and proportionally weighted using the program ENZFITTER (Leatherbarrow, R.J. (1987) ENZFITTER. Biosoft, Cambridge, UK). A nominal molecular weight of 26.8 kDa was used in all calculations that required the interconversion of protein concentration and molarity of protease enzyme (Table 4).

[1] = other: F54, AAPF-pNA 0.16 to 3.2 mM
[2] = other: F45, AAPF-pNA 0.16 to 3.2 mM
[3] = other: F49, AAPF-pNA 0.16 to 3.2 mM
[4] = other: F43, AAPF-pNA 0.16 to 3.2 mM
[5] = other: F11, AAPF-pNA 0.16 to 3.2 mM
[6] = other: F44, AAPF-pNA 0.16 to 3.2 mM
[7] = other: F47, AAPF-pNA 0.16 to 3.2 mM
[8] = other: F55, AAPF-pNA 0.16 to 3.2 mM
[9] = other: M131, AAPF-pNA 0.16 to 3.2 mM
[10] = other: F46, AAPF-pNA 0.16 to 3.2 mM

B1: Bacillus lentus DSM 5483 alkaline protease (BLAP) variant F54, S3T + V41 + R99G + A188P + V193M + V199I + L211D, SEQ ID NO:17 (Lederbergia lenta; … (protein)
chain: AQTIPWGISRVQAPAAHNRGLTGSGVKVAVLDTGISTHPDLNIRGGASFVPGEPSTQDGNGHGTHVAGTIAALNNSIGVLGVAPSAELYAVKVLGADGGGAISSIAQGLEWAGNNGMHVANLSLGSPSPSATLEQAVNSATSRGVLVVAASGNSGASSISYPARYANAMAVGATDQNNNRASFSQYGPGLDIMAPGVNIQSTYPGSTYASDNGTSMATPHVAGAAALVKQKNPSWSNVQIRNHLKNTATSLGSTNLYGSGLVNAEAATR
notes: made in house; host or cells: Bacillus subtilis DB104
- Km [1]: 5500 µM
- kcat [1]: 7 s⁻¹
- kcat/Km [1]: 1300 M⁻¹ s⁻¹

B2: Bacillus lentus DSM 5483 alkaline protease (BLAP) variant F45, S3T + V41 + R99S + A188P + V193M + V1991, SEQ ID NO:13 (Lederbergia lenta; … (protein)
chain: AQTIPWGISRVQAPAAHNRGLTGSGVKVAVLDTGISTHPDLNIRGGASFVPGEPSTQDGNGHGTHVAGTIAALNNSIGVLGVAPSAELYAVKVLGADGSGAISSIAQGLEWAGNNGMHVANLSLGSPSPSATLEQAVNSATSRGVLVVAASGNSGASSISYPARYANAMAVGATDQNNNRASFSQYGPGLDIMAPGVNIQSTYPGSTYASLNGTSMATPHVAGAAALVKQKNPSWSNVQIRNHLKNTATSLGSTNLYGSGLVNAEAATR
notes: as for B1
- Km [2]: 3050 µM
- kcat [2]: 208 s⁻¹
- kcat/Km [2]: 68000 M⁻¹ s⁻¹

B3: Bacillus lentus DSM 5483 alkaline protease (BLAP) variant F49, S3T + V4I + A188P + V193M + V1991 + L211D, SEQ ID NO:16 (Lederbergia lenta; … (protein)
chain: AQTIPWGISRVQAPAAHNRGLTGSGVKVAVLDTGISTHPDLNIRGGASFVPGEPSTQDGNGHGTHVAGTIAALNNSIGVLGVAPSAELYAVKVLGADGRGAISSIAQGLEWAGNNGMHVANLSLGSPSPSATLEQAVNSATSRGVLVVAASGNSGASSISYPARYANAMAVGATDQNNNRASFSQYGPGLDIMAPGVNIQSTYPGSTYASDNGTSMATPHVAGAAALVKQKNPSWSNVQIRNHLKNTATSLGSTNLYGSGLVNAEAATR
notes: as for B1
- Km [3]: 3500 µM
- kcat [3]: 38 s⁻¹
- kcat/Km [3]: 11000 M⁻¹ s⁻¹

B4: Bacillus lentus DSM 5483 alkaline protease (BLAP) variant F43, S3T + V41 + R99G + A188P + V193M + V1991, SEQ ID NO:11 (Lederbergia lenta; … (protein)
chain: AQTIPWGISRVQAPAAHNRGLTGSGVKVAVLDTGISTHPDLNIRGGASFVPGEPSTQDGNGHGTHVAGTIAALNNSIGVLGVAPSAELYAVKVLGADGGGAISSIAQGLEWAGNNGMHVANLSLGSPSPSATLEQAVNSATSRGVLVVAASGNSGASSISYPARYANAMAVGATDQNNNRASFSQYGPGLDIMAPGVNIQSTYPGSTYASLNGTSMATPHVAGAAALVKQKNPSWSNVQIRNHLKNTATSLGSTNLYGSGLVNAEAATR
notes: as for B1
- Km [4]: 1730 µM
- kcat [4]: 171 s⁻¹
- kcat/Km [4]: 99000 M⁻¹ s⁻¹

B5: Bacillus lentus DSM 5483 alkaline protease (BLAP) variant F11, S3T + R99S + A188P + V193M + V1991, SEQ ID NO:10 (Lederbergia lenta; A188P/R99S/S3T/V193M/V199I) (protein)
chain: AQTVPWGISRVQAPAAHNRGLTGSGVKVAVLDTGISTHPDLNIRGGASFVPGEPSTQDGNGHGTHVAGTIAALNNSIGVLGVAPSAELYAVKVLGADGSGAISSIAQGLEWAGNNGMHVANLSLGSPSPSATLEQAVNSATSRGVLVVAASGNSGASSISYPARYANAMAVGATDQNNNRASFSQYGPGLDIMAPGVNIQSTYPGSTYASLNGTSMATPHVAGAAALVKQKNPSWSNVQIRNHLKNTATSLGSTNLYGSGLVNAEAATR
notes: as for B1
- Km [5]: 1880 µM
- kcat [5]: 174 s⁻¹
- kcat/Km [5]: 92000 M⁻¹ s⁻¹

B6: Bacillus lentus DSM 5483 alkaline protease (BLAP) variant F44, S3T + V41 + R99A + A188P + V193M + V1991, SEQ ID NO:12 (Lederbergia lenta; … (protein)
chain: AQTIPWGISRVQAPAAHNRGLTGSGVKVAVLDTGISTHPDLNIRGGASFVPGEPSTQDGNGHGTHVAGTIAALNNSIGVLGVAPSAELYAVKVLGADGAGAISSIAQGLEWAGNNGMHVANLSLGSPSPSATLEQAVNSATSRGVLVVAASGNSGASSISYPARYANAMAVGATDQNNNRASFSQYGPGLDIMAPGVNIQSTYPGSTYASLNGTSMATPHVAGAAALVKQKNPSWSNVQIRNHLKNTATSLGSTNLYGSGLVNAEAATR
notes: as for B1
- Km [6]: 2490 µM
- kcat [6]: 257 s⁻¹
- kcat/Km [6]: 103000 M⁻¹ s⁻¹

B7: Bacillus lentus DSM 5483 alkaline protease (BLAP) variant F47, S3T + V41 + S154D + A188P + V193M + V1991, SEQ ID NO:15 (Lederbergia lenta; … (protein)
chain: AQTIPWGISRVQAPAAHNRGLTGSGVKVAVLDTGISTHPDLNIRGGASFVPGEPSTQDGNGHGTHVAGTIAALNNSIGVLGVAPSAELYAVKVLGADGRGAISSIAQGLEWAGNNGMHVANLSLGSPSPSATLEQAVNSATSRGVLVVAASGNDGASSISYPARYANAMAVGATDQNNNRASFSQYGPGLDIMAPGVNIQSTYPGSTYASLNGTSMATPHVAGAAALVKQKNPSWSNVQIRNHLKNTATSLGSTNLYGSGLVNAEAATR
notes: as for B1
- Km [7]: 2000 µM
- kcat [7]: 249 s⁻¹
- kcat/Km [7]: 124000 M⁻¹ s⁻¹

B8: Bacillus lentus DSM 5483 alkaline protease (BLAP) variant F55, S3T + V41 + S154E + A188P + V193M + V1991 + L211D, SEQ ID NO:18 (Lederbergia lenta; … (protein)
chain: AQTIPWGISRVQAPAAHNRGLTGSGVKVAVLDTGISTHPDLNIRGGASFVPGEPSTQDGNGHGTHVAGTIAALNNSIGVLGVAPSAELYAVKVLGADGRGAISSIAQGLEWAGNNGMHVANLSLGSPSPSATLEQAVNSATSRGVLVVAASGNEGASSISYPARYANAMAVGATDQNNNRASFSQYGPGLDIMAPGVNIQSTYPGSTYASDNGTSMATPHVAGAAALVKQKNPSWSNVQIRNHLKNTATSLGSTNLYGSGLVNAEAATR
notes: as for B1
- Km [8]: 4300 µM
- kcat [8]: 11 s⁻¹
- kcat/Km [8]: 2600 M⁻¹ s⁻¹

B9: Bacillus lentus DSM 5483 alkaline protease (BLAP) variant M131, S3T + V41 + A188P + V193M + V1991, SEQ ID NO: 24 (Lederbergia lenta; A188P/S3T/V193M/V199I/V4I) (protein)
chain: AQTIPWGISRVQAPAAHNRGLTGSGVKVAVLDTGISTHPDLNIRGGASFVPGEPSTQDGNGHGTHVAGTIAALNNSIGVLGVAPSAELYAVKVLGADGRGAISSIAQGLEWAGNNGMHVANLSLGSPSPSATLEQAVNSATSRGVLVVAASGNSGASSISYPARYANAMAVGATDQNNNRASFSQYGPGLDIMAPGVNIQSTYPGSTYASLNGTSMATPHVAGAAALVKQKNPSWSNVQIRNHLKNTATSLGSTNLYGSGLVNAEAATR
notes: site-specific mutagenesis of DNA encoding the mature form of wild type BLAP; made in house; host or cells: Bacillus subtilis DB104
- Km [9]: 980 µM
- kcat [9]: 153 s⁻¹
- kcat/Km [9]: 156000 M⁻¹ s⁻¹

B10: Bacillus lentus DSM 5483 alkaline protease (BLAP) variant F46, S3T + V41 + S154E + A188P + V193M + V1991, SEQ ID NO:14 (Lederbergia lenta; … (protein)
chain: AQTIPWGISRVQAPAAHNRGLTGSGVKVAVLDTGISTHPDLNIRGGASFVPGEPSTQDGNGHGTHVAGTIAALNNSIGVLGVAPSAELYAVKVLGADGRGAISSIAQGLEWAGNNGMHVANLSLGSPSPSATLEQAVNSATSRGVLVVAASGNEGASSISYPARYANAMAVGATDQNNNRASFSQYGPGLDIMAPGVNIQSTYPGSTYASLNGTSMATPHVAGAAALVKQKNPSWSNVQIRNHLKNTATSLGSTNLYGSGLVNAEAATR
notes: as for B1
- Km [10]: 2000 µM
- kcat [10]: 358 s⁻¹
- kcat/Km [10]: 179000 M⁻¹ s⁻¹
